Experiment: soluble on expression in E. coli; label from the status in PepcDB or PDB records

Sequence | soluble on expression in E. coli
MAHHHHHHMNKTKIESSYFTYQNNHSKIGNPILYKGEVIGMEIIDIRVKDDVEGLFNVCSCYLDNEHHAYNKCSESDIHYMQISSIRIIIKIVHNINILTGKKLHINLQDYVTPYPIKSAFIIKKVEHYSCNNINNKSFNEIQEHFYNNEKKLKFYNIFLYETDLQEFKEDIIFENPGMYLLCYTSNDSQSEYSAELSTILVNGNY | not soluble
MAHHHHHHMNRLTNTNKGYTTNKEYISNNAQKNICTINYGQTYSNILNDEEKEKILQQYIYTLSHLSIIDIDREKDISLNISLLLKACLASHNYIKNVEIYTSQIKNQDICSFIYENRTDFEDFVNTHILKYIEFFNKDKIEDTLQSYIKDKILYDNELNIFNIIKNNNIELRKDILQDISFECIRLNKIIQYSLAVNKLDLFSYHIIFKIFMYFKTDQFYYHLFLNNIQKIKYYYSIKNITDQHKEIIYKIVDKYLYIIHYMNNMYQNRDIKNV | not soluble
MAHHHHHHMNRSSSTSVNKDNVLQLTYYEIFSLDEVAESIDLQALHRAYRRFALLFHPDKDASPEAREAFLRVKLAAETLSDPIKRQEYNEQLRREAHEQREVKEQQRECGVGEEAIMAEMILRQKEAESLAKSAAANKEAAEREAAAKKMINELTNALTTPFKQMETALVSEWDIDEGLLDMKVNEIRLLLQKLHNLSCHREGRKGGGGAMGFSSGSEALPTAVKRTREESGVNITA | not soluble
MAHHHHHHMPGKRKRVQGDDNTESQASAVPQGDGQTRARPESHGDTNQPAATHIRVEEPRQPQWTLESRLEDVLLEGKERITNMRLNDFLRNYFDGRGVEEFNENVYMKYFLISPNEFIKDEVLLSTIKVSPPYQELKKEREEFYMLLEASNKLKKECIITLEQWSNFERKDTVTPLARAQINTAFSRVLREERWEAEERQRRERQEMGIDVSTRIKYAVLKGRVRVNKMKLNDFLTMELDGRGVGSANWNFLLRDFFICSTKYIYDVFLLLKIQASDRYNTMERAVRDEMDMEEDVNRLYKNGVDNLLKWLVAAAEVKANVHEVTKRFLDAAAEEAREPKKSSAPMKLEGCYESVYNASWHHFVEVPDGEGTVMEVREGEPPRSWTYKAVGDTLERNDGVEQSGAPRPRLMVLTSDKGWPYTWRRMDPLVAAM | not soluble
MAHHHHHHMPKIRPGMKRPPPGFEKINDKLDEYDAEMRLALSEDPSQAELPVPSKRKDKQNKVEATKDKHAQSVQRGDGGVAGHSDGELDKPEPPLWRVARINRERTRYVFNACFRERIIAEEVLDYCCEMNFIDAGLVRRWSLAGYERLCCNTCCLPGAASEAARMVNKFANRDKKDRRTNGNDDTGGTCICRVPDEKRLAKAFTRCMVCGCSGCGSGGKRKHDTEEKDSVSDMKKVRTDDYEVKSGK | not soluble
MAHHHHHHMPLFCSSTTFMLKVRRAAVKTWKCFAFIAFVSSSMRYISCGFTADDNTKSKSCPFDALGISNNSDMTTVKAAYRSKCQTEHPDVGGTEEGFRRIRWAYESCCEKLVKTGPRSNSEFDGSSHESSSKQKDDEGDYTHSYYRYKSKDERYHEQRQMFYYLFSSVETRNDIDNLLSKALRSHCFDAIDVSEPLRLSLRNYHRVTGYGEHHLTSCFAAMEHWEEYTQRRADVTQYHIMLILYTDGPKPGLTAQLISEGVEAIMEQMCVKGIEYDDWSLTLAHKAYRVCPYPST | not soluble
MAHHHHHHMPPLRGAGRGRNKTGTVPTARTNGGFKAKGSVKPRTFDEYYGEIYGARWHTLRTAMMEAPRKVALWNRFSQVPFEEATRGLSRVEPNSLIQAFQPTQTANSTEAVSTADRGINDDDEAKLQGKALAAAADDLLHRNGVIDKPPIDAFGIKAYYLLDYASAHVVEQLQVGAFDTVLDMCAAPGGKSIAVAQFLSPDGALTCNEARADRCARLRRNLQEHVPVNYVPWRTTQRDAQTWYDPGAFSRVLVDAPCSSERHLLQQSGGSPLSLREWSEETTVQLAALQRMLLQRAIETCRVGGRIVYSTCSISPLENDGVVGEVLQRTRCEVKVIKTSPAAAAAAPVALPKTATDAGESDASGAEACAPHTPTVLGEATAYGRLLLPDTCHGWGPMFLCVLEKTAEHKDVSSSSEDDDE | not soluble
MAHHHHHHMPSGDAMIPRVCRTFSDAFASDEATAKEQGKKYWISRVLGSGATGTVLCAKRRSDGQSFAVKVVEMEGMSEADKNRAQAEVQCLLNCDFFSILKCHEDFAKKDPADEENVLMVALVLDYANAGDLRQEIKNRAKAARAFREHEAGLLFIQVLLAIHHVHSRHMIHRDIKTANILLCSNGLVKLGDFGFSKMYSATVSGDVGKTFCGTPYYVAPEIWRRKPYSKKADIFSLGVLLYELLTLKRPFDGENMQEVMQKALAGRYDPLPPTISPEMTEVVTSLLCGDPHARPSSSKLLNMPICKLFVSGLLEIVQTQPSFAGPLRDTISTHIQSVKQSLKEERRVTVRQMEESQSAAAASTTILEGATPMGSVGDLTLYEGIVKKQSGDLAWKRRYLCIRGALEEGERLDVGRMPKFKSLDLVLAVSKETMRQQCITTPFSELEDVFPVASKYTGSNAQHVFAVAFKTGRRLLFQARGDPERDAWMQKIQQTLGIDEAD | soluble
MAHHHHHHMQDVDEMKYLLPNLKQPITSIQVHSWTGTKESYILESKDYVLGEGMPEKCDAIATDCFLSGFTDIGKCFQCKLLMQEKNINDSCFKYVSSNQKELIKKQLKITAQDDEESSEYHLSESIKNLLKNIYKKNNDDNKKKELLHFENVNSALKSELLNYCNLLKEVNMNGVLKDHQLGNVQDVFNNLTKLLEEHKEENDNVLYHKMKNEALCLKNVNDWMKNKTGLLLPQLSYDLTYKNNNFTEFTQNKSYTSQNIVDKLYCNHEYCNRLKDHNNCISKINVEDQKNCALSWAFASKYHLETIKCMKGYEPLNASVLYVTNCLKNKNKDVCTEGSNPLVFLETIEEKGFLPTESNYPYDQSKVGDICPQLQNDWDNVFENTKVLDYNNGPFSVGTKGYIAYESEAFQKDMHSFVKLVKDEIMNKGSVIAYVKAENVLGYELNGKKVQNLCGDKTPDHVVNIVGYGNYINNKGEKKSYWIVRNSWGKYWGDDGYFKVDMYGPSTCEDNFIHTVVVFNVQVPINEKFDKKEHDIYNYYLKTSPEFYHNLYYKTFNSNKEEKSMNKNSYVYGQDTTPVENEAPRSGVQKPTELSSTESQTVSPPNESQTESLLSGGSQVTNPTLTQSTSSSSGQQETGPLSTQGLSPATGDPKGKEQEASPAEGLSGVLNPTKEVTSEEKIQIIHLLKHIKNSKIRRGLVKYNHEFEVGDNSCSRSTSKNAEMHDECVNICEKYWPECRGTAVPGYCLSTHDDKNECDFCYV | not soluble
MAHHHHHHMQQQQQVPVGLQLMRQPYRATAEQFQRFIVGLDAVLNQWTALHLVSQHCDLSALTSMYRELVSWFQKDGEVYSDDLEIFFENFFGEARSVIVEDDSMKEVGDVLHDMYCRCCQNDFSTVERYVASLEVYRRVNPVQLSMNVGGADDEDELAGAGAMSNTYDGVVGNEEEEMETMGDGLDMKDEVEESEQRKKRRSKKRKNAYERDADGWCVVRN | not soluble
MAHHHHHHMQRNWVLLPQTVRAGDAPKSSAVRTPTRPLPYVCLKSNDGMEFVLPEVAARQSKMLAMLLDAVYSLPERGGFAEPTNARGEQHTTVHASNNIGTMPCIPLEVLSGRILELVCRYLVQRSTSDVNSTDEFALLGELNPTSSSDQDIVLGLLMASDYLDC | soluble
MAHHHHHHMQTVPSFQKTTSFHCSKAGRVLYSFREASRISGTHLPIVSAVDSYTLDSVFSEEVRPSFKSFAVDPSDRYCAAILDQDIDSVIRLFSLSAGPYPDHGAFASPAVQEEQDSAMGADEEEMEQWSIEDDDYDTDDSTDSNDDEFEEDEDDDDDSYDEEDAEEEFEEWEEEDEEESSPGTGSGSDEQEGTQASSRHAN | soluble
MAHHHHHHMRAAPTRLAPSTVASLGRSHCGSQAYHLDAAGAAGWRRRRRLTGVSMTTTHTVAPAVSALPFSLSTARRTYYWPYPENLVPEGATTSPFQSSPVPSVRERIIREYALGPLFGSRTPCCVLGFAGTARDVAACKRDVRRWVARALGKSEADVELGALVQAKEMLLHRSGTDESPRLGDGPGSRPDAEQRRVTRYARLPVQARTLLEVYLPGEEHGEVDAAADADATILAHGYFLQEQLHRHMTTTASSGSDPTGRRDSEDCQPEEPARKMQSHCQGCSEPNDEADVKSSVAALHDVCGVIYCEVPVLDESDFAFDQLCGKEVDDETTERVTDRWTRRAMQQQPQL | soluble
MAHHHHHHMRLTPLRCSAAAFHFTSLLLQGSGGGYRFFEDMYPKHDPAPRYRYYEDQMQSPTVRSLEPKKQMTETEKLHHLHDWKKDKEGLTPPPEFGWPEEWGPEPGEEGHSEWYRKNRMYMSYEEKSRYDLRVGVPVEKNSMRHQEMPYQKRMKAAYVNLEEKNPQYFDPRQRKYWAEYSYEDQRDTMAKARDDYIKEWLDEPGVTKENVAKKIGDYNGTAKNQNVKSVQRRPEWELAPRPEYDDD | not soluble
MAHHHHHHMRSFMYMCRQVQGARFIQITRSRCGRTIPYKLADIGEGIKEVEVVTLYVKPGDRIGEFEKICEVQSDKATVEITSRYAGVITTVHIEAGEKAHVGEPIVDIEVNDTDETQKPSCGTVDCNVSDQFNNGGVPVAEEGDSCAADCTTEISKDFTKVLATPAVREFARSRGVNITDVKGTGKDGRVLREDVLSYAGKSCYNDDVVVRLDTGLRKAMVSSMTKAGSVPSFTACDEVEVSQLLNFQHILRDALNSSSEGVRDGSKVSLMPLFIKAASQSLLQYPELNAHVSSECDKLFVKKAHHIGFAMDTPKGLVVPVVRDVQQKSVAELVHEVNELVTLGRKSQIPPDRMKDGTFTLSNIGPIGAIYATPMLNPPQVAIGAIGRIQQLPRFDASGNVVRANILAMSWTADHRVIDGATLVRFSNAFKRCLESPGLLIAGEVA | not soluble
MAHHHHHHMRSISTGSGANLQKPSWIAQLCSDAQKSEKTISCDVKVYDELSWRRRRFSFDKELWDPARMSSIVRRRLCLGNEEAEYTVIGEAFAFADREDSPVVNEPQHSCKLLWDHNSSVEKLLIQISDHFPPLLWYAVKPTLESLKRIFSEFLDVDAEHMKKNLPYYESVQNAMETSTQERLGVTLSPTSVKDRFVADMRRRDPKDLELDYPCEYSVFLGTSPHFRLVEDRMMKSNPFVFGWPLLLSDGNEHLDGTPLRMAAFRTVYSKSLLMFHTRLDLQVDHRLASSEAGEETLLDVPIFCNINYPKNTRLCGGKPLVQRFNTVMGTTYPLDTPVDILAALAKEQCVKGPNELLEELRFLTAAAERAPDEERVFRISDDQLSANRIVGQLAYTIIYVALVNYDRFIKDVFDVYKTHRSDMVRVACARGASIVGRPDLIEQLISAEREGPCKNMLRGVVTTP | not soluble
MAHHHHHHMRVRHKVRNAVLLKGGEADTVKPLFLLNKIKNRKLQKRNNVTLHMDNSNEDTSRLSLLKNLDDESKVITQSPEWNEKMPLLEITNLHAMEVEGGKEILKGINLTIFLGEKHTIMGRNGSGKSTLAKVIAGHPYYKVTSGTIKFKGLNLSELPVNVRSLCGIFLAFQYPVELPMVKNNEFLRAALNSHRRQRNEPEISATEFDLLMIEEIKKVGLSSEFLDRPVNYGFSGGEKKRNEILQMLILKPSFCILDETDSGLDVDSFKLTSNVITNFSNEKNSFLIVTHYKKLLELLRPNFIHIMHQGKIIESGDYSLVDKIEAKGYAQFVKDS | not soluble

— the DeepSol protein solubility set
